Substitutions are numbered along the chain they refer to.
B1: A1 VL2 (Fab, V domains shown)
VH: not shown
VL: DIQMTQSPSSLSASVGDRVTITCRASQEIRNYLAWYQQKPGKAPKLLIYAASTLQSGVPSRFSGSGSGTDFTLTISSLQPEDVATYYCQHYHRAPYTFGQGTKVEIK
notes: Fab: VH/VL joined to human kappa constant domain and human G1 CH1
B2: A1 VL3 (Fab, V domains shown)
VH: not shown
VL: B1 VL with T97H
notes: as for B1
B3: A1 VL4 (Fab, V domains shown)
VH: not shown
VL: B1 VL with Q89H
notes: as for B1
B4: Ab4 Fab (Fab, V domains shown)
VH: EVQLVESGGGLVQPGGSLRLSCAASGYVFTDYGMNWVRQAPGKGLEWMGWINTYIGEPIYADSVKGRFTFSLDTSKSTAYLQMNSLRAEDTAVYYCARGYRSYAMDYWGQGTLVTVSS
VL: DIQMTQSPSSLSASVGDRVTITCKASQNVGTNVAWYQQKPGKAPKALIYSASFLYSGVPYRFSGSGSGTDFTLTISSLQPEDFATYYCQQYNIYPLTFGQGTKVEIK
notes: as for B1
B5: A1 VH2 (Fab, V domains shown)
VH: EVQLVESGGGLVQPGRSLRLSCAASGFTFDQYAMHWVRQAPGKGLEWVSAITWNSGHIDYADSVEGRFTISRDNAKNSLYLQMNSLRAEDTAVYYCAKVSYLPTAHHLDYWGQGTLVTVSS
VL: not shown
notes: as for B1
B6: AF-M2637 Fab (Fab, V domains shown)
VH: not shown
VL: B1 VL with E28G, Q89H
notes: pH switch variant of Ab1; Fab: VH/VL joined to human kappa constant domain and human G1 CH1; also called control AF-M2637
B7: A1 VH3 (Fab, V domains shown)
VH: B5 VH with S100H, L102H, H106S, H107S
VL: not shown
notes: as for B1
B8: A1 VL7 (Fab, V domains shown)
VH: not shown
VL: B1 VL with Y32H, H90R, H92N, R93H
notes: as for B1

Experiments:
[1] = target: T1, human TNFα (human, UniProt P01375 77-233, biotinylated in the Example 2 assay (sites not given)); experiment: ELISA: Fab titrated on immobilized human TNFα, 2 h dissociation at pH 7.4 with 100 nM soluble TNFα, A450
T1 construct: also called biotinylated human TNFα; soluble TNFα
Procedure: (§1) A 96-well Costar-3366 plate was coated with 50 μL/well of 1 μg/mL human TNFα (Genscript cat. #Z01001) in PBS for one hour at room temperature. The plate was rinsed twice with PBS-T and blocked with 100 μL/well of 1% BSA in PBS (B-PBS) for 1 h at 25° C. Fab samples were serially diluted 3-fold starting at 40 nM in B-PBS and were incubated for 1 h at 25° C. (50 μL/well). The plate was washed four times with PBS-T and 50 µL/well of 100 nM human TNFα in 1% BSA was added for 2 h at 25° C. The plate was washed four times with PBS-T and 50 μL/well of anti-human kappa, HRP conjugate (Southern Biotech, Prod. #2060-05) diluted 5,000-fold in B-PBS was added for 1 h at 25° C. The plate was washed three times with PBS-T, then developed with 50 μL/well 1-Step Ultra TMB-ELISA (ThermoFisher Scientific, Prod. #34028). The reaction was terminated by the addition of 2 N H₂SO₄ and the A450 was determined before and after addition of H₂SO₄, respectively, using a Spectramax plate reader.
(§2) The ELISA method used to characterize these variants was described in Example 3.

[2] = target: T1, human TNFα; experiment: ELISA: Fab titrated on immobilized human TNFα, 2 h dissociation at pH 6.0 with 100 nM soluble TNFα, A450
Procedure: as §1, §2

[3] = target: T2, murine TNFα (murine, UniProt P06804 80-235, limits assumed, biotinylated (sites not given)); experiment: ELISA: Fab captured via anti-human Fd, biotinylated murine TNFα titrated (x axis), prolonged dissociation at pH 7.4, A450
T2 construct: Bought reagent; also called biotinylated murine TNFα
T2 sequence (looked up): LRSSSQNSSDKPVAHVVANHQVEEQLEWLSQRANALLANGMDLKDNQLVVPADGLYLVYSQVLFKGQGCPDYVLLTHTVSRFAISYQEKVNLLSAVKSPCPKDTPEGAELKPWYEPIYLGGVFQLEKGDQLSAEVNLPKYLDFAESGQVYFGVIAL
Procedure: A 96-well Costar-3366 plate was coated with 50 μL/well of 2 μg/mL sheep anti-human Fd (Southern Biotech, Prod. #2046-01) in PBS for 1 hour at room temperature. The plate was washed four times with PBS containing 0.05% Tween 20 (PBS-T) and blocked with 100 μL/well of 1% BSA-PBS for 1 hour at room temperature. Block was removed and 50 μL/well of 0.5 ug/mL sample was added. Sample dilutions were performed with 1% BSA-PBS. The plate was washed four times with PBS containing 0.05% Tween 20 (PBS-T), then biotinylated murine (Acro biosystems) TNFα was serially diluted 3-fold starting at 30 nM in B-PBS and incubated for 1 h at 25° C. (50 μL/well). The plates were washed in 500 mL of PBS-T, pH 6.0 or PBS-T, pH 7.4 for 1 hour. PBS-T was removed from the plates every 10 minutes during this wash. The plates were then washed four times with PBS-T, and incubated with 50 μL/well of Neutravidin HRP (ThermoFisher Scientific, cat. #31030), diluted 2,000-fold in B-PBS for 1 h at 25° C. The plate was washed four times with PBS-T, then developed with 50 μL/well 1-Step Ultra TMB-ELISA (ThermoFisher Scientific, Prod. #34028). The reaction was terminated by the addition of 2 N H₂SO₄ and the A450 was determined before and after addition of H₂SO₄, respectively, using a Spectramax plate reader.

[4] = target: T1, human TNFα; experiment: ELISA: Fab titrated on immobilized human TNFα, 2 h dissociation at pH 7.4 with 100 nM soluble TNFα, A450; remark: listed apart in the source
Procedure: as §1

[5] = target: T1, human TNFα; experiment: ELISA: Fab titrated on immobilized human TNFα, 2 h dissociation at pH 7.4 with 100 nM soluble TNFα, A450 [cont.) C]
Procedure: as §1, §2

T1 sequence (P01375 77-233 limits assumed): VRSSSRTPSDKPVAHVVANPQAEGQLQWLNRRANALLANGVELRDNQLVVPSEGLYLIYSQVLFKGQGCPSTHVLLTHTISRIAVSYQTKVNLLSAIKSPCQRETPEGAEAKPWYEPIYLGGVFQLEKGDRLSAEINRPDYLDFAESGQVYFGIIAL

EC50 (read off the curve) [1] [nM] | EC50 (read off the curve) [2] [nM] | binding result [3] | also measured | Binder
~0.4 | ~0.7 |  |  | B1
 | ~0.9 |  |  | B2
 | ~1 |  |  | B3
 |  | no binding (tested: log -7.5 M b-muTNF) |  | B4
 |  |  | binding result [1]: binds | B5
~3 |  | no binding (tested: log -7.5 M b-muTNF) |  | B6
~0.7 |  | binds | EC50 (read off the curve) [4]: ~2 nM | B7
 |  | binds | EC50 (read off the curve) [5]: ~1 nM | B8

From patent US20250388665A1 (ADAFRE BIOSCIENCES, published 2025)
